Drawing on paper doi:10.1101/2022.02.13.480285, this text covers stoichiometry N (SiaQ per SiaM) for 1 substance.

The target in the assay is SiaM (M-subunit of Photobacterium profundum SiaQM) (Photobacterium profundum). Nature of the assay: AUC.

On to “SiaQ (Q-subunit of Photobacterium profundum SiaQM) (natural protein)”, for which the stoichiometry N (SiaQ per SiaM) came out at 1.
